Key:
Recombinant Protein A [1] = biological target: Recombinant Protein A (UniProt P38507); test: MetaSPR; quantitative detection by differential absorption spectra, dual-wavelength OD difference (OD615-OD590); triple-layer chip; Protein A immobilised; IgG 0-10 µg/mL
Recombinant Protein A [2] = biological target: Recombinant Protein A (UniProt P38507); test: MetaSPR; single-layer (Ti-Au) nanocup array chip, 96-well; Protein A (20 µg/mL in CBS buffer) immobilised 16 h, blocked with 1% BSA; IgG 0.1-66.7 nM in PBS; 10 min association, 15 min dissociation
Recombinant Protein A [3] = biological target: Recombinant Protein A (UniProt P38507); test: MetaSPR; double-layer (Ti-Ag-Au) nanocup array chip, 96-well; Protein A (20 µg/mL in CBS buffer) immobilised 16 h, blocked with 1% BSA; IgG 0.1-66.7 nM in PBS; 10 min association, 15 min dissociation
Recombinant Protein A [4] = biological target: Recombinant Protein A (UniProt P38507); test: MetaSPR; triple-layer (Ti-Au-Ag-Au) nanocup array chip, 96-well; Protein A (20 µg/mL in CBS buffer) immobilised 16 h, blocked with 1% BSA; IgG 0.1-66.7 nM in PBS; 10 min association, 15 min dissociation
Recombinant Protein A [5] = biological target: Recombinant Protein A (UniProt P38507); test: MetaSPR; quadruple-layer (Ti-Ag-Au-Ag-Au) nanocup array chip, 96-well; Protein A (20 µg/mL in CBS buffer) immobilised 16 h, blocked with 1% BSA; IgG 0.1-66.7 nM in PBS; 10 min association, 15 min dissociation

Question: What does the source list for “Immunoglobulin Antigen (Human IgG) (antibody)”?
Answer: maximum reaction value (dual-wavelength OD difference) at the highest IgG concentration (10 µg/mL) (Recombinant Protein A [1]): 0.435; Kd (Recombinant Protein A [2]): 0.24 nM; Kd (Recombinant Protein A [3]): 0.116 nM; Kd (Recombinant Protein A [4]): 0.122 nM; Kd (Recombinant Protein A [5]): 0.218 nM

Source: publication PMC11633510
